Drawing on article PMC7518282, this text covers binding signal (% (normalization reference)) and binding signal (% of aptamer 53 in light) for 2 sequences.

This data set has as its system PAL. Briefly: plate RNA binding assay (RiboGreen), immobilized PAL. The conditions noted are these: 12 mM HEPES/KOH pH 7.2, 135 mM KCl, 10 mM NaCl, 10% w/v glycerol, 0.5 mg/mL heparin, 0.5 mg/mL BSA, 25 C, 30 min, 465 nm light or dark, 100 or 1000 nM RNA.

On to “GGGAGGACGAUGCGGCCCGUACAGCAGCGAUGCGGGUCGCGUGUCCACCCCGGCUCAGACGACUCGCUGAGGAUCCGAGA [aptamer 53]”, for which the binding signal (% (normalization reference)) (blue light 465 nm) is 100.

On to “GGGGUGGAAUCUUUACAGGACUAUCACGGUACAGCACCGAUGCCGGAUAGUCCUGUAAAGAUUCCACUU [SHCDK1m]”, for which the binding signal (% of aptamer 53 in light) is 3.97. In addition, where the note is “1000 nM RNA, dark (block inferred from row order), mean of 6 printed values”, the binding signal (% of aptamer 53 in light) was 1.35.
